The target in the assay is α-Synuclein (UniProt P37840). In words: cross-linking.

One substance from article doi:10.1101/2022.04.20.488894 can be followed below.

“α-Synuclein (from UniProt P37840 1-140) (natural protein)” showed a P intra (intra-protein character) of the DSBU cross-link Lys-21 to Lys-32 of 77%.
